Measurements as given in patent US20220152154A1, “GROWTH DIFFERENTIATION FACTOR 15 COMBINATION THERAPY” (Amgen Inc., priority 2019, published 2022).

Tests used:
[1] = Body weight change in DIO mice treated for 5 weeks; assay type: in vivo; parameters: key to Significance of Body Weight Change: ns: not significant; *: p < 0.05; **: p < 0.005; ***: p < 0.001; ****: p < 0.0001; conditions: subcutaneous; for Significance of Body Weight Change: male C57Bl/6 DIO mice, 2-way ANOVA with Dunnett's analysis; for change in body weight: DIO mice
Experimental: (§1) Male C57Bl/6 DIO mice, 19-20 weeks old (13-14 weeks on high fat diet) at beginning of dosing, were placed into the following treatment groups: Group A—Vehicle, in which the animals were administered vehicle weekly; Group B—Dulaglutide, in which the animals were administered 0.1 mg/kg (2 nmol/kg) of dulaglutide twice per week; Group C—GIPR Ab, in which the animals were administered 5 mg/kg (33 nmol/kg) of antibody 2.63.1 (having a light and heavy chain sequence of SEQ ID NOs: 105 and 106, respectively) weekly and vehicle weekly (the latter being on the alternate dulaglutide dosing day); Group D—GDF15, in which the animals were administered 0.125 mg/kg (1 nmol/kg) of FcΔ10(−)-(G4S)4-GDF15 (SEQ ID NO: 39) (along with its heterodimerization partner, FcΔ10(+,K) (SEQ ID NO: 32)) weekly and vehicle weekly (the latter on the alternate dulaglutide dosing day); Group E—GDF15+Dulaglutide, in which the animals were administered 0.125 mg/kg (1 nmol/kg) of FcΔ10(−)-(G4S)4-GDF15) (along with its heterodimerization partner, FcΔ10(+,K)) weekly and 0.1 mg/kg (2 nmol/kg) of dulaglutide twice per week; Group F—GDF15+GIPR Ab, in which the animals were administered 0.125 mg/kg (1 nmol/kg) of FcΔ10(−)-(G4S)4-GDF15 (along with its heterodimerization partner, FcΔ10(+,K)) weekly and 5 mg/kg (33 nmol/kg) of antibody 2.63.1 weekly. The animals were dosed for 5 weeks with through subcutaneous injection.
Body weight was measured twice per week.

[2] = Food intake measured three consecutive days per week; assay type: in vivo; parameters: key: ns: not significant; *: p < 0.05; **: p < 0.005; ***: p < 0.001; ****: p < 0.0001; conditions: male C57Bl/6 DIO mice, 2-way ANOVA with Dunnett's analysis
Experimental: as §1

B1: GIPR Ab: GIPR antibody 2.63.1 having a light and heavy chain sequence of SEQ ID NOs: 105 and 106 (antibody)
heavy: MGWSYIILFLVATATDVHSQVQLQQPGAELVKPGASVKLSCRASGYTFTSNWMHWVKQRPRQGLEWIGEINPSNGRSNYNEKFKTKATLTVDKSSSTAYMQLSSLTSEDSAVYYCARFYYGTSWFAYWGQGTLVAVSAAKTTPPSVYPLAPGSAAQTNSMVTLGCLVKGYFPEPVTVTWNSGSLSSGVHTFPAVLQSDLYTLSSSVTVPSSTWPSETVTCNVAHPASSTKVDKKIVPRDCGCKPCICTVPEVSSVFIFPPKPKDVLTITLTPKVTCVVVDISKDDPEVQFSWFVDDVEVHTAQTQPREEQFASTFRSVSELPIMHQDWLNGKEFKCRVNSAAFPAPIEKTISKTKGRPKAPQVYTIPPPKEQMAKDKVSLTCMITDFFPEDITVEWQWNGQPAENYKNTQPIMDTDGSYFVYSKLNVQKSNWEAGNTFTCSVLHEGLHNHHTEKSLSHSPGK
light: MKLPVRLLVLMFWIPASSSDVVMTQTPLSLPVSLGDQASISCRSSQSLVHSNGDTYLHWYLQKPGQSPKLLIYKVSNRFSGVPDRFSGSGSGTDFTLKISRVEAADLGVYFCSQSTHVPPFTFGGGTKLEIKRADAAPTVSIFPPSSEQLTSGGASVVCFLNNFYPKDINVKWKIDGSERQNGVLNSWTDQDSKDSTYSMSSTLTLTKDEYERHNSYTCEATHKTSTSPIVKSFNRNEC
Significance of Body Weight Change ([1]; D0): ns
Significance of Body Weight Change ([1]; D3): ns
Significance of Body Weight Change ([1]; D7): ns
Significance of Body Weight Change ([1]; D10): ns
Significance of Body Weight Change ([1]; D14): ns
Significance of Body Weight Change ([1]; D17): ns
Significance of Body Weight Change ([1]; D21): ns
Significance of Body Weight Change ([1]; D31): ns
Significance of Body Weight Change ([1]; D35): ns
Significance of Body Weight Change ([1]; D-4): ns
change in body weight ([1]; five weeks after treatment): 2.24%
change in body weight ([1]; two weeks after treatment): −0.91%
Significance of Food Intake Assay ([2]; D2): ns
Significance of Food Intake Assay ([2]; D8): ns
Significance of Food Intake Assay ([2]; D9): ns
Significance of Food Intake Assay ([2]; D10): ns
Significance of Food Intake Assay ([2]; D15): ns
Significance of Food Intake Assay ([2]; D16): ns
Significance of Food Intake Assay ([2]; D17): ns
Significance of Food Intake Assay ([2]; D22): * (p < 0.05)
Significance of Food Intake Assay ([2]; D23): ns
Significance of Food Intake Assay ([2]; D24): ns
Significance of Food Intake Assay ([2]; D29): ns
Significance of Food Intake Assay ([2]; D30): ns
Significance of Food Intake Assay ([2]; D31): ns
